Six molecules from patent US20140206609A1 (Sanofi, published 2014) can be followed below.

Experiment in all cases: cell-based or functional assay
One assay addresses human glucagon receptor (human, UniProt P47871 26-477).
In a further assay the target is T1, human GIP receptor (human, UniProt P48546 22-466).
T1 sequence (looked up): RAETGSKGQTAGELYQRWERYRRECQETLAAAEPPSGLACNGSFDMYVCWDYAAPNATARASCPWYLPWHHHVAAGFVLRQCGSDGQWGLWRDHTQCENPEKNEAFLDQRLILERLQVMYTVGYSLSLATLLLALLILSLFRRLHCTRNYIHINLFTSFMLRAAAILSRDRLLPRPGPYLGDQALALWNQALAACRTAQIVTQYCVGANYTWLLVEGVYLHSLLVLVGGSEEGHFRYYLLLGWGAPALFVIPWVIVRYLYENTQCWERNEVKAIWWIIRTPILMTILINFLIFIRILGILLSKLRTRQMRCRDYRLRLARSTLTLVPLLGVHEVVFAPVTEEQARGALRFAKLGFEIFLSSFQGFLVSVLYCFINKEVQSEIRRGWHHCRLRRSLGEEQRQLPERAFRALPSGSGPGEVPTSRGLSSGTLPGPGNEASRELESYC

The next assay deals with human GLP-1 receptor (human, UniProt P43220 24-463).

*1 amine or outer side, *2 acyl side, *3 side chain or, on linkers, in order; H or OH if unused. Where no end group is shown, it is not given here. Side-chain parts run from the residue outwards. [ ]: non-standard residue; d: D form. The star is where a group is joined. γGlu = O=C(O)[C@H](CCC(=O)[*:2])N[*:1]; Stearoyl = CCCCCCCCCCCCCCCCCC(=O)*; Palmitoyl = CCCCCCCCCCCCCCCC(=O)*; Aib = CC(C)(N)C(=O)O; GABA = NCCCC(=O)O

Sequence of human glucagon receptor (P47871 26-477): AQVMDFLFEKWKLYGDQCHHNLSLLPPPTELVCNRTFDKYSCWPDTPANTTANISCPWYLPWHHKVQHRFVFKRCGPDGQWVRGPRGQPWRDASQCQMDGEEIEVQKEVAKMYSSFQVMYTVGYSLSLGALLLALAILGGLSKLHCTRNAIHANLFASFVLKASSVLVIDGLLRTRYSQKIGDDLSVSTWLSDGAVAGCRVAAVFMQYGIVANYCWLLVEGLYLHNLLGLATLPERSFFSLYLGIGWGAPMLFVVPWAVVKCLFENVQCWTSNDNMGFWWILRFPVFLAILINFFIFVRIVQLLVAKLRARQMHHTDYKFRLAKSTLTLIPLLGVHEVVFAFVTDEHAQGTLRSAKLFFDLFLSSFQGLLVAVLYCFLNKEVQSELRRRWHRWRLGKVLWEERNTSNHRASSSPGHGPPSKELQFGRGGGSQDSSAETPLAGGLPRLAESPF

B1: SEQ ID NO: 14 (peptide)
peptide: Y[Aib]EGTFTSDLSIQK([γGlu-Stearoyl])EKRAAQEFIEWLKAGGPSSGAPPPS-NH2
modifications: N-terminus assumed
SMILES: CCCCCCCCCCCCCCCCCC(=O)N[C@@H](CCC(=O)NCCCC[C@H](NC(=O)[C@H](CCC(N)=O)NC(=O)[C@@H](NC(=O)[C@H](CO)NC(=O)[C@H](CC(C)C)NC(=O)[C@H](CC(=O)O)NC(=O)[C@H](CO)NC(=O)[C@@H](NC(=O)[C@H](Cc1ccccc1)NC(=O)[C@@H](NC(=O)CNC(=O)[C@H](CCC(=O)O)NC(=O)C(C)(C)NC(=O)[C@@H](N)Cc1ccc(O)cc1)[C@@H](C)O)[C@@H](C)O)[C@@H](C)CC)C(=O)N[C@@H](CCC(=O)O)C(=O)N[C@@H](CCCCN)C(=O)N[C@@H](CCCNC(=N)N)C(=O)N[C@@H](C)C(=O)N[C@@H](C)C(=O)N[C@@H](CCC(N)=O)C(=O)N[C@@H](CCC(=O)O)C(=O)N[C@@H](Cc1ccccc1)C(=O)N[C@H](C(=O)N[C@@H](CCC(=O)O)C(=O)N[C@@H](Cc1c[nH]c2ccccc12)C(=O)N[C@@H](CC(C)C)C(=O)N[C@@H](CCCCN)C(=O)N[C@@H](C)C(=O)NCC(=O)NCC(=O)N1CCC[C@H]1C(=O)N[C@@H](CO)C(=O)N[C@@H](CO)C(=O)NCC(=O)N[C@@H](C)C(=O)N1CCC[C@H]1C(=O)N1CCC[C@H]1C(=O)N1CCC[C@H]1C(=O)N[C@@H](CO)C(N)=O)[C@@H](C)CC)C(=O)O
For the molecule B1, in the assay with human glucagon receptor, the “EC50 hGLUC R [pM]” value is 3760 pM. Besides, the “EC50 hGIP R [pM]” value in the assay with human GIP receptor amounted to 4.4 pM. For the same molecule, the “EC50 hGLP-1 R [pM]” value in the assay with human GLP-1 receptor came to 4.3 pM.

B2: SEQ ID NO: 16 (peptide)
peptide: Y[Aib]EGTFTSDLSIQK([γGlu-γGlu-Stearoyl])EKRAA[Aib]EFIEWLKNTGPSSGAPPPS-NH2
modifications: N-terminus assumed
SMILES: CCCCCCCCCCCCCCCCCC(=O)N[C@@H](CCC(=O)N[C@@H](CCC(=O)NCCCC[C@H](NC(=O)[C@H](CCC(N)=O)NC(=O)[C@@H](NC(=O)[C@H](CO)NC(=O)[C@H](CC(C)C)NC(=O)[C@H](CC(=O)O)NC(=O)[C@H](CO)NC(=O)[C@@H](NC(=O)[C@H](Cc1ccccc1)NC(=O)[C@@H](NC(=O)CNC(=O)[C@H](CCC(=O)O)NC(=O)C(C)(C)NC(=O)[C@@H](N)Cc1ccc(O)cc1)[C@@H](C)O)[C@@H](C)O)[C@@H](C)CC)C(=O)N[C@@H](CCC(=O)O)C(=O)N[C@@H](CCCCN)C(=O)N[C@@H](CCCNC(=N)N)C(=O)N[C@@H](C)C(=O)N[C@@H](C)C(=O)NC(C)(C)C(=O)N[C@@H](CCC(=O)O)C(=O)N[C@@H](Cc1ccccc1)C(=O)N[C@H](C(=O)N[C@@H](CCC(=O)O)C(=O)N[C@@H](Cc1c[nH]c2ccccc12)C(=O)N[C@@H](CC(C)C)C(=O)N[C@@H](CCCCN)C(=O)N[C@@H](CC(N)=O)C(=O)N[C@H](C(=O)NCC(=O)N1CCC[C@H]1C(=O)N[C@@H](CO)C(=O)N[C@@H](CO)C(=O)NCC(=O)N[C@@H](C)C(=O)N1CCC[C@H]1C(=O)N1CCC[C@H]1C(=O)N1CCC[C@H]1C(=O)N[C@@H](CO)C(N)=O)[C@@H](C)O)[C@@H](C)CC)C(=O)O)C(=O)O
Consider B2, for which the “EC50 hGLUC R [pM]” value in the assay with human glucagon receptor was determined as 2890 pM. The “EC50 hGIP R [pM]” value in the assay with human GIP receptor amounted to 5.1 pM. Further, in the assay with human GLP-1 receptor, the “EC50 hGLP-1 R [pM]” value was found to be 4 pM.

B3: SEQ ID NO: 11 (peptide)
peptide: Y[Aib]EGTFTSDLSIQK([γGlu-Palmitoyl])DKRAA[Aib]DFIEWLKAGGPSSGAPPPS-NH2
modifications: N-terminus assumed
SMILES: CCCCCCCCCCCCCCCC(=O)N[C@@H](CCC(=O)NCCCC[C@H](NC(=O)[C@H](CCC(N)=O)NC(=O)[C@@H](NC(=O)[C@H](CO)NC(=O)[C@H](CC(C)C)NC(=O)[C@H](CC(=O)O)NC(=O)[C@H](CO)NC(=O)[C@@H](NC(=O)[C@H](Cc1ccccc1)NC(=O)[C@@H](NC(=O)CNC(=O)[C@H](CCC(=O)O)NC(=O)C(C)(C)NC(=O)[C@@H](N)Cc1ccc(O)cc1)[C@@H](C)O)[C@@H](C)O)[C@@H](C)CC)C(=O)N[C@@H](CC(=O)O)C(=O)N[C@@H](CCCCN)C(=O)N[C@@H](CCCNC(=N)N)C(=O)N[C@@H](C)C(=O)N[C@@H](C)C(=O)NC(C)(C)C(=O)N[C@@H](CC(=O)O)C(=O)N[C@@H](Cc1ccccc1)C(=O)N[C@H](C(=O)N[C@@H](CCC(=O)O)C(=O)N[C@@H](Cc1c[nH]c2ccccc12)C(=O)N[C@@H](CC(C)C)C(=O)N[C@@H](CCCCN)C(=O)N[C@@H](C)C(=O)NCC(=O)NCC(=O)N1CCC[C@H]1C(=O)N[C@@H](CO)C(=O)N[C@@H](CO)C(=O)NCC(=O)N[C@@H](C)C(=O)N1CCC[C@H]1C(=O)N1CCC[C@H]1C(=O)N1CCC[C@H]1C(=O)N[C@@H](CO)C(N)=O)[C@@H](C)CC)C(=O)O
B3: the “EC50 hGLUC R [pM]” value with human glucagon receptor is 7220 pM. In addition, in the assay with human GIP receptor, the “EC50 hGIP R [pM]” value was determined as 3.2 pM. For the same molecule, in the assay with human GLP-1 receptor, the “EC50 hGLP-1 R [pM]” value turned out to be 11.5 pM.

B4: SEQ ID NO: 12 (peptide)
peptide: Y[Aib]EGTFTSDLSIQK([γGlu-Palmitoyl])DKRAAQDFIEWLKNGGPSSGAPPPS-NH2
modifications: N-terminus assumed
SMILES: CCCCCCCCCCCCCCCC(=O)N[C@@H](CCC(=O)NCCCC[C@H](NC(=O)[C@H](CCC(N)=O)NC(=O)[C@@H](NC(=O)[C@H](CO)NC(=O)[C@H](CC(C)C)NC(=O)[C@H](CC(=O)O)NC(=O)[C@H](CO)NC(=O)[C@@H](NC(=O)[C@H](Cc1ccccc1)NC(=O)[C@@H](NC(=O)CNC(=O)[C@H](CCC(=O)O)NC(=O)C(C)(C)NC(=O)[C@@H](N)Cc1ccc(O)cc1)[C@@H](C)O)[C@@H](C)O)[C@@H](C)CC)C(=O)N[C@@H](CC(=O)O)C(=O)N[C@@H](CCCCN)C(=O)N[C@@H](CCCNC(=N)N)C(=O)N[C@@H](C)C(=O)N[C@@H](C)C(=O)N[C@@H](CCC(N)=O)C(=O)N[C@@H](CC(=O)O)C(=O)N[C@@H](Cc1ccccc1)C(=O)N[C@H](C(=O)N[C@@H](CCC(=O)O)C(=O)N[C@@H](Cc1c[nH]c2ccccc12)C(=O)N[C@@H](CC(C)C)C(=O)N[C@@H](CCCCN)C(=O)N[C@@H](CC(N)=O)C(=O)NCC(=O)NCC(=O)N1CCC[C@H]1C(=O)N[C@@H](CO)C(=O)N[C@@H](CO)C(=O)NCC(=O)N[C@@H](C)C(=O)N1CCC[C@H]1C(=O)N1CCC[C@H]1C(=O)N1CCC[C@H]1C(=O)N[C@@H](CO)C(N)=O)[C@@H](C)CC)C(=O)O
As to B4, the “EC50 hGLUC R [pM]” value with human glucagon receptor was determined as 1890 pM. The “EC50 hGIP R [pM]” value with human GIP receptor came to 8.9 pM. The “EC50 hGLP-1 R [pM]” value with human GLP-1 receptor was determined as 12.7 pM.

B5: SEQ ID NO: 17 (peptide)
peptide: Y[Aib]EGTFTSDLSIQK([GABA-Stearoyl])EKRAA[Aib]EFIEWLKNTGPSSGAPPPS-NH2
modifications: N-terminus assumed
SMILES: CCCCCCCCCCCCCCCCCC(=O)NCCCC(=O)NCCCC[C@H](NC(=O)[C@H](CCC(N)=O)NC(=O)[C@@H](NC(=O)[C@H](CO)NC(=O)[C@H](CC(C)C)NC(=O)[C@H](CC(=O)O)NC(=O)[C@H](CO)NC(=O)[C@@H](NC(=O)[C@H](Cc1ccccc1)NC(=O)[C@@H](NC(=O)CNC(=O)[C@H](CCC(=O)O)NC(=O)C(C)(C)NC(=O)[C@@H](N)Cc1ccc(O)cc1)[C@@H](C)O)[C@@H](C)O)[C@@H](C)CC)C(=O)N[C@@H](CCC(=O)O)C(=O)N[C@@H](CCCCN)C(=O)N[C@@H](CCCNC(=N)N)C(=O)N[C@@H](C)C(=O)N[C@@H](C)C(=O)NC(C)(C)C(=O)N[C@@H](CCC(=O)O)C(=O)N[C@@H](Cc1ccccc1)C(=O)N[C@H](C(=O)N[C@@H](CCC(=O)O)C(=O)N[C@@H](Cc1c[nH]c2ccccc12)C(=O)N[C@@H](CC(C)C)C(=O)N[C@@H](CCCCN)C(=O)N[C@@H](CC(N)=O)C(=O)N[C@H](C(=O)NCC(=O)N1CCC[C@H]1C(=O)N[C@@H](CO)C(=O)N[C@@H](CO)C(=O)NCC(=O)N[C@@H](C)C(=O)N1CCC[C@H]1C(=O)N1CCC[C@H]1C(=O)N1CCC[C@H]1C(=O)N[C@@H](CO)C(N)=O)[C@@H](C)O)[C@@H](C)CC
For B5, the “EC50 hGLUC R [pM]” value in the assay with human glucagon receptor was 9740 pM. The “EC50 hGIP R [pM]” value with human GIP receptor was determined as 9.6 pM. Also, the “EC50 hGLP-1 R [pM]” value with human GLP-1 receptor was determined as 8.7 pM.

B6: SEQ ID NO: 13 (peptide)
peptide: Y[Aib]QGTFTSDLSIQK([γGlu-Palmitoyl])DSRAAQDFIEWLKNGGPSSGAPPPS-NH2
modifications: N-terminus assumed
SMILES: CCCCCCCCCCCCCCCC(=O)N[C@@H](CCC(=O)NCCCC[C@H](NC(=O)[C@H](CCC(N)=O)NC(=O)[C@@H](NC(=O)[C@H](CO)NC(=O)[C@H](CC(C)C)NC(=O)[C@H](CC(=O)O)NC(=O)[C@H](CO)NC(=O)[C@@H](NC(=O)[C@H](Cc1ccccc1)NC(=O)[C@@H](NC(=O)CNC(=O)[C@H](CCC(N)=O)NC(=O)C(C)(C)NC(=O)[C@@H](N)Cc1ccc(O)cc1)[C@@H](C)O)[C@@H](C)O)[C@@H](C)CC)C(=O)N[C@@H](CC(=O)O)C(=O)N[C@@H](CO)C(=O)N[C@@H](CCCNC(=N)N)C(=O)N[C@@H](C)C(=O)N[C@@H](C)C(=O)N[C@@H](CCC(N)=O)C(=O)N[C@@H](CC(=O)O)C(=O)N[C@@H](Cc1ccccc1)C(=O)N[C@H](C(=O)N[C@@H](CCC(=O)O)C(=O)N[C@@H](Cc1c[nH]c2ccccc12)C(=O)N[C@@H](CC(C)C)C(=O)N[C@@H](CCCCN)C(=O)N[C@@H](CC(N)=O)C(=O)NCC(=O)NCC(=O)N1CCC[C@H]1C(=O)N[C@@H](CO)C(=O)N[C@@H](CO)C(=O)NCC(=O)N[C@@H](C)C(=O)N1CCC[C@H]1C(=O)N1CCC[C@H]1C(=O)N1CCC[C@H]1C(=O)N[C@@H](CO)C(N)=O)[C@@H](C)CC)C(=O)O
Turning to B6, in the assay with human glucagon receptor, the “EC50 hGLUC R [pM]” value stood at 31.3 pM. Further, in the assay with human GIP receptor, the “EC50 hGIP R [pM]” value came out at 71 pM. The “EC50 hGLP-1 R [pM]” value with human GLP-1 receptor stood at 7.3 pM.
